Entries after “also recorded” stand apart in the source; their conditions may differ.
Legend:
[1] = molecular target: T1, Cx43 CT (Rattus norvegicus, UniProt P08050); experiment: Protein thermal shift assay, Cx43 CT; assay type: binding; conditions: 500 μg/ml protein, 25-100 μM peptide
T1 construct: CT: amino acids 255 to 382) alone; GST (N); made in house; host or cells: E. coli BL21
Method: (§1) Thermal stability of recombinant GST-PDZ2 or Cx43 CT in the presence or absence of peptides was determined in a 96-well format. Each assay well was composed of 500 μg/ml protein, 25-100 μM of each peptide in PBS buffer, pH7.4. All assays were performed independently six times. Samples were generally prepared in 96-well plates at final volumes of 20 μL. The fluorescent dye SYPRO Orange (5000× concentrate in DMSO, ThermoFisher, S6650) was added to a final concentration of 8X. Reactions were run on QuantStudio 6 Flex Real-Time PCR system (Applied Biosystems, part of Life Technologies Corporation, CA) according to the manufacturer's recommendations using a melt protocol in 0.05-degree/see increments from 25° C. to 95° C. The Reporter Dye was “ROX” and quencher Dye and passive reference were selected as “None” for the melt curve according to manufacturer's instructions. The data were analyzed using Protein Thermal Shift™ Software v1.3 package (Applied Biosystems, CA).

[2] = molecular target: T2, ZO-1 PDZ2 (Homo sapiens, UniProt Q07157); experiment: Protein thermal shift assay, ZO-1 PDZ2; assay type: binding; conditions: 500 μg/ml protein, 25-100 μM peptide
T2 construct: the second of the three PDZ (PDZ2) domains of ZO-1; made in house; host or cells: E. coli BL21
T2 sequence (Q07157 186-264 limits assumed): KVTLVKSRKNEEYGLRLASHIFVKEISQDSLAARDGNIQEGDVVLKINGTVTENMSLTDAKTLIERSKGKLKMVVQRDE
Method: as §1

[3] = molecular target: T3, PKC-ε phosphorylation of Cx43-CT substrate at Ser368 (Rattus norvegicus, UniProt P08050); experiment: PKC-ε Cx43 CT S368 phosphorylation assay; assay type: biochemical; conditions: peptides at 20 μM
T3 construct: substrate (Cx43-CT: amino acids 255 to 382); GST (N); made in house; host or cells: E. coli BL21 (Cx43 CT); PKC-ε purchased (Life, 37717L)
Method: PKC assay conditions were used to evaluate the PKC-ε phosphorylation of Cx43-CT substrate at Ser368 as we have described previously, with modifications 11. 400 ng/ml […] (Life, 37717L, Carlsbad, CA) was pre-diluted in enzyme dilution buffer (10 mM HEPES pH7.4, 0.01% CHAPS and 5 mM DTT) and assayed in 20 mM HEPES pH7.4, 10 mM/L MgCl2, 0.1 mM EGTA, 1× lipid mix (200 μg/ml phosphatidylserine (Avanti Polar Lipids 840032C),^20 μg/ml Diacylglycerol (Avanti Polar Lipids), 1 mM HEPES pH7.4, 0.03% CHAPS), 500 µM ATP (Sigma, A6419) and 14 μg/ml Cx43-CT substrate. Kinase assay buffer was supplemented with peptides to produce final concentrations of the reaction constituents, as indicated in figure legends. The mixture was incubated at 37° C. for 12 minutes and quenched by addition of LDS sample loading buffer (Bio Rad, 1610791). “XT sample buffer” is what was shown on the product label, whereas the component is similar as regular LDS buffer, containing about 5-10% lithium dodecyl sulphate. The reaction was Western blotted for pS368 Cx43 using the Phospho-Connexin43 (Ser368) antibody from Cell Signaling. Proteins were eluted off by stripping buffer (Millipore 2504) and re-probed for total Cx43 using the Sigma anti-rabbit antibody. Percent phosphorylation (% P) was quantified using Equation 1 and normalized with control group (PKC+, no peptide added).

T3 sequence (P08050 255-382): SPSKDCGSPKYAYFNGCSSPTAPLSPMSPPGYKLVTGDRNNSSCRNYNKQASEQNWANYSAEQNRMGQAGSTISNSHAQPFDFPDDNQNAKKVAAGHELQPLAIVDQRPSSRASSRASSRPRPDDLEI
T1 sequence (P08050 255-382): as above

Row | Sequence | Cx43 CT melt temperature (Tm) [1] | PDZ2 melt temperature (Tm) [2] | Cx43 S368 phosphorylation [3] | PDZ2 melt temperature (Tm) ([2]; listed as M3) | ability to induce S368 phosphorylation ([3]; greater than PKC ε+plus control, M1 AALAI or M4)
1 | RQPKIWFPNRRKPWKK RPRPAALAI (RQPKIWFPNRRKPWKKRPRPAALAI) [M1 AALAI] | no propensity to alter Cx43 CT thermal stability | did not alter the melt temperature of PDZ2 | neither M1 AALAI (SEQ ID NO: 134), M2 AALEI (SEQ ID NO: 135) nor M3 DDLAI (SEQ ID NO: 136) increased Cx43 S368 phosphorylation | – | –
2 | RQPKIWFPNRRKPWKKRPRPDDLAI [M3 DDLAI] | no propensity to alter Cx43 CT thermal stability | evidence of significant interaction with its ZO-1-binding domain | neither M1 AALAI (SEQ ID NO: 134), M2 AALEI (SEQ ID NO: 135) nor M3 DDLAI (SEQ ID NO: 136) increased Cx43 S368 phosphorylation | significantly increase the Tm of | –
3 | RQPKIWFPNRRKPWKKRPRPDDLE [alpha CT1-I] | highly significant decreases in melt temperature | PDZ2 interaction incompetent | significant increase in PKC ε-mediated phosphorylation of Cx43 CT | – | –
4 | RQPKIWFPNRRKPWKKRPRPDDLEI [alpha CT1] | highly significant decreases in melt temperature | significantly increase the Tm of; also recorded: increased the melt temperature of PDZ2 in a dose-dependent manner | – | – | about 3 fold
